pKd: −log10 of the molar value.
Key:
Experiment in all cases: IEDB peptide-MHC binding, purified MHC/competitive/fluorescence; filed as Kd, often an IC50 or EC50 that approximates it; ≥ and ≤ were set here for values at or beyond the usual limits of such assays
Conditions in all cases: source organism: Entamoeba histolytica HM-1:IMSS
HLA-A*02:01 = molecular target: HLA-A*02:01
HLA-A*02:16 = molecular target: HLA-A*02:16
HLA-A*02:19 = molecular target: HLA-A*02:19
HLA-A*03:01 = molecular target: HLA-A*03:01
HLA-A*11:01 = molecular target: HLA-A*11:01
HLA-A*23:01 = molecular target: HLA-A*23:01
HLA-A*24:03 = molecular target: HLA-A*24:03
HLA-A*29:02 = molecular target: HLA-A*29:02
HLA-A*30:01 = molecular target: HLA-A*30:01
HLA-A*66:01 = molecular target: HLA-A*66:01
HLA-A*68:02 = molecular target: HLA-A*68:02
HLA-B*07:02 = molecular target: HLA-B*07:02
HLA-B*08:01 = molecular target: HLA-B*08:01
HLA-B*14:02 = molecular target: HLA-B*14:02
HLA-B*15:17 = molecular target: HLA-B*15:17
HLA-B*27:03 = molecular target: HLA-B*27:03
HLA-B*27:05 = molecular target: HLA-B*27:05
HLA-B*39:01 = molecular target: HLA-B*39:01
HLA-B*40:01 = molecular target: HLA-B*40:01
HLA-B*44:02 = molecular target: HLA-B*44:02
HLA-B*46:01 = molecular target: HLA-B*46:01
HLA-B*51:01 = molecular target: HLA-B*51:01
HLA-B*53:01 = molecular target: HLA-B*53:01
HLA-B*57:01 = molecular target: HLA-B*57:01

## EVIRATYPS
HLA-A*02:01
  pKd: ≤ 4.70
HLA-A*02:16
  pKd: ≤ 4.70
HLA-A*02:19
  pKd: ≤ 4.70
HLA-A*03:01
  pKd: ≤ 4.70
HLA-A*11:01
  pKd: ≤ 5.30
HLA-A*23:01
  pKd: ≤ 4.70
HLA-A*24:03
  pKd: ≤ 4.70
HLA-A*29:02
  pKd: ≤ 4.70
HLA-A*30:01
  pKd: ≤ 5.30
HLA-A*66:01
  pKd: 7.61
HLA-A*68:02
  pKd: 9.70
HLA-B*07:02
  pKd: ≤ 5.30
HLA-B*08:01
  pKd: ≤ 5.30
HLA-B*14:02
  pKd: ≤ 5.30
HLA-B*15:17
  pKd: ≤ 4.70
HLA-B*27:03
  pKd: ≤ 4.70
HLA-B*27:05
  pKd: ≤ 5.30
HLA-B*39:01
  pKd: ≤ 4.70
HLA-B*40:01
  pKd: ≤ 5.30
HLA-B*44:02
  pKd: ≤ 5.30
HLA-B*46:01
  pKd: ≤ 4.70
HLA-B*51:01
  pKd: ≤ 4.70
HLA-B*53:01
  pKd: ≤ 5.30
HLA-B*57:01
  pKd: ≤ 4.70

Reference: the Immune Epitope Database (IEDB)
